Reference: patent publication US20120244171A1 (IMMUNOGEN, published 2012)

Biological target: human folate receptor 1 (human, UniProt P15328 25-234)
Assay: cell-based or functional assay

Chain of human folate receptor 1 (P15328 25-234): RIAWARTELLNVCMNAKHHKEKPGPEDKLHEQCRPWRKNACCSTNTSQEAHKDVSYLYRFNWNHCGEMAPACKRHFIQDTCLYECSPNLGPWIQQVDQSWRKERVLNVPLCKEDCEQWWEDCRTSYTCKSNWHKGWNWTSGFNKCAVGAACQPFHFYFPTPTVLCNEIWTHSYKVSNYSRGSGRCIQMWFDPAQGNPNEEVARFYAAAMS

B1: huFOLR1-SPDB-1f conjugate (antibody, human IgG1, kappa, V domains shown)
VH: QVQLVQSGAEVVKPGASVKISCKASGYTFTGYFMNWVKQSPGQSLEWIGRIHPYDGDTFYNQKFQGKATLTVDKSSNTAHMELLSLTSEDFAVYYCTRYDGSRAMDYWGQGTTVTVSS
VL: DIVLTQSPLSLAVSLGQPAIISCKASQSVSFAGTSLMHWYHQKPGQQPRLLIYRASNLEAGVPDRFSGSGSKTDFTLTISPVEAEDAATYYCQQSREYPYTFGGGTKLEIKR
modifications: compound 1f linked through the SPDB linker; positions not given
For B1, the “fold loss of cytotoxic potency when blocked with unconjugated antibody” value was 40 fold, the “fold reduction of cytotoxic effect on KB cells by an excess of unconjugated huFOLR1 antibody” value was greater than 40 fold and the “in vitro cytotoxicity IC50 on antigen positive KB cells” value was 0.055 nM.
